Data published in PMC5577222.

Legend:
[1] = molecular target: microtubules polymerized from porcine brain tubulin (taxol-stabilized) (porcine) (UniProt P02550); assay: single-molecule TIRF microscopy; rhodamine-labelled taxol-stabilized microtubules held on the surface by anti-beta-tubulin; eGFP-DRG1 at 0.08, 0.4, 4, 40 nM in BRB80 assay buffer with 1 mM GTP, 25 °C; residence times from kymographs, not corrected for bleaching
[2] = molecular target: microtubules polymerized from porcine brain tubulin (taxol-stabilized) (porcine) (UniProt P02550); assay: co-sedimentation; 1 µM recombinant DRG1 with different concentrations of taxol-stabilized microtubules; Coomassie quantified with ImageJ, binding curve fitted

residence time, diffusive population, 4 nM eGFP-DRG1 [1] [s]	residence time, diffusive population, 40 nM eGFP-DRG1 [1] [s]	residence time, immobile fraction, 0.08 nM eGFP-DRG1 [1] [s]	residence time, immobile fraction, 0.4 nM eGFP-DRG1 [1] [s]	residence time, immobile fraction, 4 nM eGFP-DRG1 [1] [s]	residence time, immobile fraction, 40 nM eGFP-DRG1 [1] [s]	Kd [2] [nM]	Binder
2.2	2.6	12	12.4	11.1	5.4	–	eGFP-DRG1 (Xenopus laevis DRG1 with N-terminal eGFP) (natural protein) MSGTLARIAEIEAEMARTQKNKATAYHLGLLKARLAKLRRELITPKGGGGGGPGEGFDVAKTGDARIGFVGFPSVGKSTLLSNLAGVYSEVAAYEFTTLTTVPGVVRYKGAKIQLLDLPGIIEGAKDGKGRGRQVIAVARTCNLILIVLDVLKPLGHKKIIENELEGFGIRLNKQPPNIGFKKKDKGGINLTATCAQSELDNDTVKSILAEYKIHNADITLRSDATADDLIDVVEGNRVYIPCIYVLNKIDQISIEELDIIYKVPHCVPISAHHRWNFDDLLEKIWDYLQLVRIYTKPKGQLPDYTSPVVLPCSHTAAEDFCTKIHKNLIKEFKYALVWGSSVKHNPQKVGKDHVLEDEDVIQIVKK
–	–	–	–	–	–	470	recombinant Xenopus laevis Developmentally regulated GTP binding protein 1 (DRG1), full length (natural protein) MSGTLARIAEIEAEMARTQKNKATAYHLGLLKARLAKLRRELITPKGGGGGGPGEGFDVAKTGDARIGFVGFPSVGKSTLLSNLAGVYSEVAAYEFTTLTTVPGVVRYKGAKIQLLDLPGIIEGAKDGKGRGRQVIAVARTCNLILIVLDVLKPLGHKKIIENELEGFGIRLNKQPPNIGFKKKDKGGINLTATCAQSELDNDTVKSILAEYKIHNADITLRSDATADDLIDVVEGNRVYIPCIYVLNKIDQISIEELDIIYKVPHCVPISAHHRWNFDDLLEKIWDYLQLVRIYTKPKGQLPDYTSPVVLPCSHTAAEDFCTKIHKNLIKEFKYALVWGSSVKHNPQKVGKDHVLEDEDVIQIVKK
